The values that follow come from publication PMC4072508, “Genome-Wide Prediction and Validation of Peptides That Bind Human Prosurvival Bcl-2 Proteins” (PLoS Computational Biology, 2014).

Holding throughout (test): peptide SPOT array, c-Myc-tagged receptor at 1 uM or 100 nM, anti-c-Myc-Cy3
One assay deals with Bcl-xL, Q07817.
The target in another assay is T1, Bfl-1, Q16548.
T1 chain: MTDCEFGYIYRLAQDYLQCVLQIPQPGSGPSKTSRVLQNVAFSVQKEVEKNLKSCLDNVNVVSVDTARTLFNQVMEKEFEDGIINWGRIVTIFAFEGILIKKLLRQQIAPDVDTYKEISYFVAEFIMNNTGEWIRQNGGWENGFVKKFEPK

A further assay deals with T2, Mcl-1, Q07820.
T2 chain: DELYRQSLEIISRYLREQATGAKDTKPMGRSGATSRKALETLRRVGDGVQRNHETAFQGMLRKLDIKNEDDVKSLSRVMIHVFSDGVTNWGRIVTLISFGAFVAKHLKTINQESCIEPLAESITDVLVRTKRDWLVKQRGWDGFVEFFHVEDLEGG

Bcl-xL, Q07817, sequence (Q07817 1-209): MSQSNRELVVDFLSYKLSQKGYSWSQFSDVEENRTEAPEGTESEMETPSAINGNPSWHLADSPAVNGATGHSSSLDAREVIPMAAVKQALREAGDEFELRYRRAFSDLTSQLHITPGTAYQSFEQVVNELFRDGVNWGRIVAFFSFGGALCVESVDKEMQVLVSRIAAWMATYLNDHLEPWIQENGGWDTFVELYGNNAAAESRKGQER

In the case of VHKHSRLAEVDQLGSDILPQYKQEAP [KCNH1], the SPOT signal as a fraction of Bim BH3's signal on the same receptor and array turned out to be 0.1 with Bcl-xL, Q07817; 0.06 with Bfl-1, Q16548; 0.13 with Mcl-1, Q07820.
In the same order, the values of FVGYNSTGAEDRHWSDMLANPRRPIA [SYT1] are 0.11, 0.07 and 0.08.
In the same order, the values of MPYMEAVIHEIQRFLDVIPMSLARRV [CYP2A6] are 0.14, 0.06 and 0.08.
In the same order, the values of AGYELLIQKFDSLYGDQIDMHRKFVV [ISOC1] are 0.08, 0.05 and 0.07.
With DSLLWKLAGLDRESGDVVLSGCSTLS [STK11IP], the SPOT signal as a fraction of Bim BH3's signal on the same receptor and array came out at 0.06 with Bcl-xL, Q07817; 0.04 with Bfl-1, Q16548; 0.04 with Mcl-1, Q07820.
Take TVATRRLSGFDRTLADRLEGTKELLS [MINA]: the SPOT signal as a fraction of Bim BH3's signal on the same receptor and array was found to be 0.29 with Bcl-xL, Q07817; 0.12 with Bfl-1, Q16548; 0.28 with Mcl-1, Q07820.
In the same order, the values of RLRQLGVAKKDGVLSDNFKGKRIVLV [PPAT] are 1.16, 0.44 and 0.68.
In the same order, the values of HQAEVQIARKLQCILDQFHRLHVQQH are 0.27, 0.1 and 0.1.
In the same order, the values of GGRVKLVHSALIQLGDSLSHKGNEFW [WDR60] are 0.3, 0.36 and 0.34.
For the molecule TGSLCEIATTLSFELDGFLWVKSGSV [CRB1], the SPOT signal as a fraction of Bim BH3's signal on the same receptor and array in the assay with Bcl-xL, Q07817 stood at 0.07; with Bfl-1, Q16548 it was 0.03; with Mcl-1, Q07820, 0.04.
In the same order, the values of YIVLGLRKTTDQKVGKEVAELVGRVG [NLRX1] are 0.32, 0.19 and 0.24.
In the same order, the values of RVCPYYLSRNDKQQADIIFMPYNYLL [RTEL1] are 1.3, 0.67 and 1.1.
In the same order, the values of EAVTDGLKRADRSFGNALGNCILDKD [RAD52] are 0.05, 0.03 and 0.04.
GYPFNDVCQWDIDRADLIFVVFDPTK [SRL]: the SPOT signal as a fraction of Bim BH3's signal on the same receptor and array with Bcl-xL, Q07817 is 0.07; with Bfl-1, Q16548, 0.05; with Mcl-1, Q07820, 0.06.
In the same order, the values of HHSSQEMSSEYREYADSFGKCPGGRN [PCYT2] are 0.05, 0.03 and 0.04.
In the same order, the values of VLELHPGAQRLHIGCDEVYYLGEGEA [HEXDC] are 0.06, 0.05 and 0.05.
In the same order, the values of TRRSMVFARHDREVGDEFRSRHLNST [POFUT2] are 0.85, 0.61 and 1.62.
SMRRNAMGVGDVFEADLFTTRHISHW [DNAH10]: the SPOT signal as a fraction of Bim BH3's signal on the same receptor and array with Bcl-xL, Q07817 came out at 0.12; with Bfl-1, Q16548, 0.09; with Mcl-1, Q07820, 0.09.
PSECETLGSNLGHNADLLNENNILAK [ZFP90]: the SPOT signal as a fraction of Bim BH3's signal on the same receptor and array in the assay with Bcl-xL, Q07817 came out at 0.09; with Bfl-1, Q16548, 0.03; with Mcl-1, Q07820 it was 0.04.
For HQAEVQIARKDQCIADQFHRLHVQQH, the SPOT signal as a fraction of Bim BH3's signal on the same receptor and array in the assay with Bcl-xL, Q07817 amounted to 0.03; in the assay with Bfl-1, Q16548, 0.01; with Mcl-1, Q07820, 0.01.
As for SHFVACMTAILNQMLDQHYSFYIETF [DOCK2], the SPOT signal as a fraction of Bim BH3's signal on the same receptor and array with Bcl-xL, Q07817 is 0.08; in the assay with Bfl-1, Q16548 it was 0.06; with Mcl-1, Q07820, 0.07.
Turning to FSKREKLVEILRNILDERTMVFVETK [DDX4], the SPOT signal as a fraction of Bim BH3's signal on the same receptor and array with Bcl-xL, Q07817 came out at 0.08; in the assay with Bfl-1, Q16548 it was 0.08; with Mcl-1, Q07820 it was 0.15.
As for PDKRLTLSQIYQYVLDNFPFYNKSKA [FOXI1], the SPOT signal as a fraction of Bim BH3's signal on the same receptor and array with Bcl-xL, Q07817 worked out at 0.76; with Bfl-1, Q16548, 0.41; in the assay with Mcl-1, Q07820, 0.39.
As for LALLAQPSHLMRQVARSVFGHICSHL [MYBBP1A], the SPOT signal as a fraction of Bim BH3's signal on the same receptor and array with Bcl-xL, Q07817 turned out to be 0.96; with Bfl-1, Q16548 it was 0.57; in the assay with Mcl-1, Q07820 it was 0.57.
As to GTAVAYRGAHLRGRGRAVYNTFRAAP [XXXX], the SPOT signal as a fraction of Bim BH3's signal on the same receptor and array with Bcl-xL, Q07817 amounted to 2.82; with Bfl-1, Q16548, 1.26; in the assay with Mcl-1, Q07820, 1.6.
In the same order, the values of LSIIYTLVEIDQNIGDTNLADFTAGL [SLC26A4] are 0.07, 0.03 and 0.06.
As for RKDAELLCWDLRQSGYPLWSLGREVT [WRAP53], the SPOT signal as a fraction of Bim BH3's signal on the same receptor and array is 0.07 with Bcl-xL, Q07817; 0.05 with Bfl-1, Q16548; 0.06 with Mcl-1, Q07820.
In the same order, the values of QRKHEGFERDDAALGDKVNSLGETAE [SPTAN1] are 0.08, 0.08 and 0.09.
